Source: the RNAGym collection of RNA variant scans (doi:10.7554/elife.80360)

B1: HDV Ribozyme (parent)
chain: GGCCGGCAUGGUCCCAGCCUCCUCGCUGGCGCCGGCUGGGCAACAUUCCGAGGGGACCGUCCCCUCGGUAAUGGCGAAUGGGACCCA

Variants of: B1
Test: self-cleavage, relative activity (ratio to wild type); higher = more cleavage; co-transcriptional

Row | Variant | self-cleavage
1 | GGCCGGCAUUGUCCCAGCCUCCUCGCUGGCGCCGGCUGGGCAACAUUCAGAGGGGACCGUCCCCUCGGUAAUGGCGAAUGGGACCCA [G10U C49A] | 0.554
2 | GGCCGGCAUUGUCCCAGCCUCCUCGCUGGCGCCGGCUGGGCAACAUUCUGAGGGGACCGUCCCCUCGGUAAUGGCGAAUGGGACCCA [G10U C49U] | 0.955
3 | GGCCGGCAUUGUCCCAGCCUCCUCCCUGGCGCCGGCUGGGCAACAUUCCGAGGGGACCGUCCCCUCGGUAAUGGCGAAUGGGACCCA [G10U G25C] | 0.111
4 | GGCCGGCAUUGUCCCAGCCUCCUCUCUGGCGCCGGCUGGGCAACAUUCCGAGGGGACCGUCCCCUCGGUAAUGGCGAAUGGGACCCA [G10U G25U] | 0.125
5 | GGCCGGCAUUGUCCCAGCCUCCUCGCUGGCGCGGGCUGGGCAACAUUCCGAGGGGACCGUCCCCUCGGUAAUGGCGAAUGGGACCCA [G10U C33G] | 0.0511
6 | GGCCGGCAUUGUCCCAGCCUCCUCGCUGGCGCCGGCUGGGCAACAUUCCGAGGGGACCGUGCCCUCGGUAAUGGCGAAUGGGACCCA [G10U C61G] | 0.635
7 | GGCCGGCAUUGUCCCAGCCUCCUCGCUGGCGCCGGCUGGGCAACAUUCCGAGGGGACCGUACCCUCGGUAAUGGCGAAUGGGACCCA [G10U C61A] | 0.665
8 | GGCCGGCAUUGUCCCAGCCUCCUCGCUGGCGCCGGCUGGGCAACAUUCCGAGGGGACCGUCCCCUCGGUAAUGGAGAAUGGGACCCA [G10U C75A] | 0.0213
9 | GGCCGGCAUUGUCCCAGCCUCCUCGCUGGCGCCGGCUGGGCAAUAUUCCGAGGGGACCGUCCCCUCGGUAAUGGCGAAUGGGACCCA [G10U C44U] | 0.459
10 | GGCCGGCAUUGUCCCAGCCUCCUCGCUGGCGCCGGCUGGGCAAGAUUCCGAGGGGACCGUCCCCUCGGUAAUGGCGAAUGGGACCCA [G10U C44G] | 0.296
11 | GGCCGGCAUUGUCCCAGCCUCCUCGCUGGCGCCGGCUGGGCAAAAUUCCGAGGGGACCGUCCCCUCGGUAAUGGCGAAUGGGACCCA [G10U C44A] | 0.277
12 | GGCCGGCAUUGUCCCAGCCUCCUCGCUGGCGCCGGCUGCGCAACAUUCCGAGGGGACCGUCCCCUCGGUAAUGGCGAAUGGGACCCA [G10U G39C] | 0.138
13 | GGCCGGCAUUGUCCCAGCCUCCUCGCUGGCGCCGGCUGGGCAACAUUCCGAUGGGACCGUCCCCUCGGUAAUGGCGAAUGGGACCCA [G10U G52U] | 0.891
14 | GGCCGGCAUUGUCCCAGCCUCCUCGCUGGCGCCGGCUGGGCAACAUUCCGAAGGGACCGUCCCCUCGGUAAUGGCGAAUGGGACCCA [G10U G52A] | 0.878
15 | GGCCGGCAUUGUCCCAGCCUCCUCGCUGGCGCCGGCUGGGCAACAUUCCGAGGGGACCGUCCCCUCGGUAAUGGCGAAUGAGACCCA [G10U G81A] | 0.026
16 | GGCCGGCAUUGUCCCAGCCUCCUCGCUGGCGCCGGCUGGGCAACAUUCCGAGGGGAACGUCCCCUCGGUAAUGGCGAAUGGGACCCA [G10U C57A] | 0.749

Row | Variant | self-cleavage
17 | GGCCGGCAUUGUCCCAGCCUCCUCGCUGGCGCCGGCUGGGCAACAUUCCGAGGGGACCGUCCCCUCGGUAAUGGCGAAUGGGACACA [G10U C85A] | 1.15
18 | GGCCGGCAUUGUCCCAGCCUCCUCGCUGGCGCCGGCUGGGCAACAUUCCGAGGGGACCGUCCCCUCGGUAAUGGCGAAUGGGACGCA [G10U C85G] | 1.03
19 | GGCCGGCAUUGUCCCAGCCUCCUCGCUGGCGCCGGCUGGGCAACAUUCCGAGGGGACCCUCCCCUCGGUAAUGGCGAAUGGGACCCA [G10U G59C] | 0.857
20 | GGCCGGCAUUGUCCCAGCCUCCUCGCUGGCGCCGGCUGGGCAACAUUCCGAGGGGACCUUCCCCUCGGUAAUGGCGAAUGGGACCCA [G10U G59U] | 0.905
21 | GGCCGGCAUUGUCCCAGCCUCCUCGCUGGCGCCGGCUGGGCAACAUUGCGAGGGGACCGUCCCCUCGGUAAUGGCGAAUGGGACCCA [G10U C48G] | 0.767
22 | GGCCGGCAUUGUCCCAGCCUCCUCGCUGGCGCCGGCUGGGCAACAUUUCGAGGGGACCGUCCCCUCGGUAAUGGCGAAUGGGACCCA [G10U C48U] | 0.782
23 | GGCCGGCAUUGUCCCAGCCUCCUCGCUGGCGCCGGCUGGGGAACAUUCCGAGGGGACCGUCCCCUCGGUAAUGGCGAAUGGGACCCA [G10U C41G] | 0.619
24 | GGCCGGCAUUGUCCCAGCCUCCUCGCUGGCGCCGGCUGGGCAACAUUCCGAGGGAACCGUCCCCUCGGUAAUGGCGAAUGGGACCCA [G10U G55A] | 0.893
25 | GGCCGGCAUUGUCCCAGCCUCCUCGCUGGCGCCGGCUGGGCAACAUUCCGAGGGUACCGUCCCCUCGGUAAUGGCGAAUGGGACCCA [G10U G55U] | 0.787
26 | GGCCGGCAUUGUCCCAGCCUCCUCGCUGGCGCCGGCUGGGCAACAUUCCGAGCGGACCGUCCCCUCGGUAAUGGCGAAUGGGACCCA [G10U G53C] | 0.773
27 | GGCCGGCAUUGUCCCAGCCUCCUCGCUGGCGCCGGCUGGGCAACAUUCCGAGUGGACCGUCCCCUCGGUAAUGGCGAAUGGGACCCA [G10U G53U] | 0.699
28 | GGCCGGCAUUGUCCCAGCCUCCUCGCUGGCGCCGGUUGGGCAACAUUCCGAGGGGACCGUCCCCUCGGUAAUGGCGAAUGGGACCCA [G10U C36U] | 0.472
29 | GGCCGGCAUUGUCCCAGCCUCCUCGCUGGCGCCGGGUGGGCAACAUUCCGAGGGGACCGUCCCCUCGGUAAUGGCGAAUGGGACCCA [G10U C36G] | 0.0615
30 | GGCCGGCAUUGUCCCAGCCUCCUCGCUGGCGCCGGCUGGGCAACAUUCCGAGGGGACCGUCCCCUCGGUAAUGGCGAAUGGGACCUA [G10U C86U] | 0.867
31 | GGCCGGCAUUGUCCCAGCCUCCUCGCUGGCGCCGGCUGGGCAACAUUCCGAGGGGACCGUCCCCUCGGUAAUGGCGAAUGGGACCGA [G10U C86G] | 0.445
32 | GGCCGGCAUUGCCCCAGCCUCCUCGCUGGCGCCGGCUGGGCAACAUUCCGAGGGGACCGUCCCCUCGGUAAUGGCGAAUGGGACCCA [G10U U12C] | 0.0755
